Measured values published in publication PMC10956426, “Lipid-Binding Regions within PKC-Related Serine/Threonine Protein Kinase N1 (PKN1) Required for Its Regulation” (Biochemistry, 2024).
Values joined by “and” are separate entries in the source; they are usually repeats but may differ in a detail not shown here. Identical values can stand only once.

Legend:
[1] = target: the molecule itself; assay: SEC; Superdex-200 Increase (10/300 GL), 50 mM Tris-HCl pH 7.5, 150 mM NaCl, 0.075% Brij-35; native conditions
[2] = target: the molecule itself; assay: MALDI-TOF mass spectrometry; sinapinic acid matrix in 70% acetonitrile, 0.05% TFA; positive ion-linear mode
[3] = target: the molecule itself; assay: SEC; 25 mL Sephacryl 200 (S-200) column, 20 mM phosphate buffer pH 7.4, 150 mM NaCl, 4 °C; refolded PKN1-(C2); calibrated column

| Protein | stoichiometry N [1] | stoichiometry N [2] | stoichiometry N [3] |
| --- | --- | --- | --- |
| PKN1-(25–485) (domain or fragment, PKC-related serine/threonine protein kinase N1 (PKN1), rat, residues 25-485 (HR1 and the AlphaFold-defined C2 region 310-473); The pET15b-PKN1-(25–485) plasmid was synthesized commercially; the vector probably adds an N-terminal His tag, and no cleavage is described; also called histidine-tagged PKN1 (residues 25–485)) not shown | 3 |  |  |
| PKN1-(C2)-(342–605) (domain or fragment, PKC-related serine/threonine protein kinase N1 (PKN1), rat, residues 342-605 (C2-like domain and part of the hinge region), amplified by PCR from rat liver; Cloned between NdeI and XhoI of pET15b; this vector probably adds an N-terminal His tag with a thrombin site, and no cleavage is described; also called PKN1-(342–605); histidine-tagged PKN1 (residues 342–605)) not shown |  | 2 | 3 and 4 |
